Assay results reported in PMC9832833, “Mitogen-activated protein kinase 14-mediated phosphorylation of MaMYB4 negatively regulates banana fruit ripening”.

Assays:
MBP-MaMPK14 = molecular target: T1, MBP-MaMPK14 (Musa acuminata (banana), UniProt A0A804IKS6 1-366); assay: EMSA; MBP-MaMPK14 alone; EMSA buffer not stated (kit per cited Fan et al.); kinase preincubation in 20 mM Tris-HCl, 20 mM MgCl2, 100 mM NaCl, 10 mM ATP, 2 mM DTT, 0.5 h at 30 C; pH not; details: protein: recombinant; tags: MBP (N-term, pMAL-c2X); label: biotin; blunt
T1 sequence: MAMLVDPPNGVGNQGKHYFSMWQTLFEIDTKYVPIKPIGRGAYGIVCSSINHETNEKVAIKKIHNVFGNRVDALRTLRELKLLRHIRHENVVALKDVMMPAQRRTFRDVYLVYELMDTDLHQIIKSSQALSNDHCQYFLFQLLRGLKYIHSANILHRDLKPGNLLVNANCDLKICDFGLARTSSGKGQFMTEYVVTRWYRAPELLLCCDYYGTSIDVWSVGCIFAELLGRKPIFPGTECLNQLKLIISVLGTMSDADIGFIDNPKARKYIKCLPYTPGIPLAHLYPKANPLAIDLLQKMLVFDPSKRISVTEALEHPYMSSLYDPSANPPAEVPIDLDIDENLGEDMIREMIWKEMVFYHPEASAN

GST-MaMYB4 = GST-MaMYB4 (Musa acuminata (banana), UniProt A0A804HW33 1-241); assay: EMSA; without MBP-MaMPK14; EMSA buffer not stated (kit per cited Fan et al.); kinase preincubation in 20 mM Tris-HCl, 20 mM MgCl2, 100 mM NaCl, 10 mM ATP, 2 mM DTT, 0.5 h at 30 C; pH not; details: protein: recombinant; tags: GST (N-term, pGEX-4T-1); label: biotin; blunt
Sequence of GST-MaMYB4 (A0A804HW33 entry or part of it): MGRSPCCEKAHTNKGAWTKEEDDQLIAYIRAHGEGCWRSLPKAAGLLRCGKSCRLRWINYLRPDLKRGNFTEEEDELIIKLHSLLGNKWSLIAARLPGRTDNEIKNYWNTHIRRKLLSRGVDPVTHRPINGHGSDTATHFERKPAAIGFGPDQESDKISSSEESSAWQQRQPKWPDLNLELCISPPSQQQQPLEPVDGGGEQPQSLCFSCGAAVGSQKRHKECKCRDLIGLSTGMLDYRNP

B1: MaACS1 promoter probe (dsDNA)
DNA 1: CCAAAAACAGGGTAGGTGGATGGCTTACATGCTCACCTAATAATTTATTT
DNA 2: AAATAAATTATTAGGTGAGCATGTAAGCCATCCACCTACCCTGTTTTTGG
MBP-MaMPK14
  binding result: no binding
GST-MaMYB4
  binding result: binds
